Experimental data taken from the supplement of paper PMC9732359.
± gives the uncertainty stated by the source.

Test: protein stability index of a GFP-peptide fusion (yeast GPS) (PSI 1-4); higher = more stable; sorted into four equal gates, so the index is relative within each strain
Procedure, shortened: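 Tiled 17-residue peptides from yeast proteins were fused downstream of GFP on a plasmid that also expresses Cherry, and the pooled library was carried in yeast. Mid-log cultures grown in leucine-free medium were sorted into four equal gates by GFP/Cherry fluorescence ratio. Plasmids from each gate were PCR-amplified and Illumina-sequenced, and reads were assigned to strains by barcodes. Each peptide's protein stability index is the sum, over gates, of the gate's read frequency multiplied by its gate number.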

| Sequence | protein stability index (doa10∆) | protein stability index (pdr5∆) | protein stability index (san1∆) | protein stability index (ubr1∆) |
| --- | --- | --- | --- | --- |
| PRFNRENKVSPADAAKK [RPS26A] | 3.45 ± 0.18 | 2.73 ± 0.17 | 2.98 ± 0.075 | 2.89 ± 0.12 |
| DTSGLKISNSEFFNPEI [SIN4] | 3.21 ± 0.096 | 3.44 ± 0.12 | 3.1 ± 0.058 | 3.29 ± 0.074 |
| LSKMRDSVLQLASFEKT [RPO31] | 3.12 ± 0.13 | 2.97 ± 0.079 | 2.91 ± 0.11 | 3.01 ± 0.11 |
| LAEIKKTPLLKQYLSAS [RPL6B] | 1.54 ± 0.038 | 1.55 ± 0.049 | 1.24 ± 0.094 | 1.51 ± 0.036 |
| LQWHAMIELICSSATVP [AAR2] | 1.55 ± 0.084 | 1.69 ± 0.073 | 1.59 ± 0.11 | 1.75 ± 0.057 |
| LQIGDVVERHLEDGDVV [RPO31] | 3.38 ± 0.088 | 3.43 ± 0.095 | 3.49 ± 0.069 | 3.39 ± 0.098 |
| QALIHGLNRHYYSLNID [RPN11] | 1.98 ± 0.15 | 2.4 ± 0.1 | 2.44 ± 0.068 | 2.42 ± 0.068 |
| ARYVIATSTKVSVEGVN [RPL6A] | 1.62 ± 0.051 | 1.52 ± 0.048 | 1.47 ± 0.11 | 1.27 ± 0.034 |
| GATKIVREHYLRSDIPC [DIS3] | 2.67 ± 0.069 | 2.63 ± 0.067 | 2.1 ± 0.093 | 2.43 ± 0.054 |
| LEIAKDFQPTELFDILS [IRR1] | 3.07 ± 0.13 | 2.33 ± 0.11 | 2.8 ± 0.079 | 3.08 ± 0.086 |
| IRSVALNDSNVKSFKPH [RRP42] | 2.63 ± 0.083 | 3.23 ± 0.17 | 2.62 ± 0.23 | 2.98 ± 0.13 |
| VQEMALGGPITKESQPT [FAS2] | 2.78 ± 0.099 | 2.72 ± 0.078 | 2.87 ± 0.065 | 3.01 ± 0.05 |
| QRDLYKRKEELVSTLTT [SMC2] | 2.14 ± 0.073 | 1.91 ± 0.063 | 2.64 ± 0.071 | 1.82 ± 0.053 |
| WEHTAAEDQILANFVAK [SRB8] |  | 2.5 ± 0.17 |  | 2.57 ± 0.11 |
| NDDELNKLLGNVTIAQG [HTA1] | 3.31 ± 0.12 | 3.5 ± 0.12 | 3.48 ± 0.064 | 3.34 ± 0.078 |
| VPLSDNAIIEANLGKYG [RPL7A] | 2.29 ± 0.073 | 2.25 ± 0.074 | 2.45 ± 0.074 | 2.28 ± 0.075 |
| RVFRTRFQDGTSVVSIM [SMC2] | 2.07 ± 0.099 | 1.3 ± 0.1 |  | 2.31 ± 0.087 |
| KVDATPEESKPINLQNG [YLR335W/NUP2] | 2.9 ± 0.088 | 2.95 ± 0.079 | 2.8 ± 0.06 | 3.21 ± 0.049 |
| VPTKIARGTIEIVSDVK [RPP0] | 2.26 ± 0.25 | 2.38 ± 0.055 | 2 ± 0.17 |  |
| TKYERARILGTRALQIS [RPO26] |  | 1.36 ± 0.24 |  | 1.21 ± 0.13 |
| TKFFDDAKSTPLRLRLY [RPN9] | 3.26 ± 0.24 | 3.02 ± 0.15 |  | 2.89 ± 0.17 |
| EDAIHIALLTLKESVEG [PRE8] | 2.94 ± 0.092 | 2.87 ± 0.085 | 2.94 ± 0.069 | 2.92 ± 0.076 |
| LLISDTESNELIQKLQN [IRR1] | 2.79 ± 0.076 | 2.85 ± 0.084 | 2.38 ± 0.073 | 2.9 ± 0.084 |
| VPLTKRYQHLEKITQIS [PCI8] | 2.39 ± 0.28 | 2.22 ± 0.11 |  | 1.71 ± 0.096 |
| HIQEEEEQDVDMTGDEE [RPC19] | 3.38 ± 0.15 | 3.35 ± 0.13 | 3.05 ± 0.075 | 3.27 ± 0.063 |
| HTLALEFVNGGKVVKNV [RRP46] | 2.2 ± 0.18 | 2.22 ± 0.074 | 2.19 ± 0.29 | 2.14 ± 0.13 |

| Sequence | protein stability index (doa10∆) | protein stability index (pdr5∆) | protein stability index (san1∆) | protein stability index (ubr1∆) |
| --- | --- | --- | --- | --- |
| RPDIVHTVFTSVNKNKR [RPL4A] | 1.26 ± 0.088 | 1.46 ± 0.11 | 1.24 ± 0.17 | 1.4 ± 0.12 |
| SAAGNKAIPTFSFGKPF [YIL149C/MLP2] | 2.73 ± 0.046 | 2.86 ± 0.055 | 2.96 ± 0.045 | 2.96 ± 0.034 |
| SIGEPGTQMTLKTFHFA [RPO31] |  |  | 2.56 ± 0.096 | 2.65 ± 0.17 |
| DSEERDPKLEKCLNYRN [ITC1] | 2.85 ± 0.07 | 2.74 ± 0.088 | 2.71 ± 0.061 | 2.49 ± 0.038 |
| HDYWNKIMQSISNKDVI [SRB4] | 1.85 ± 0.27 | 1.62 ± 0.23 | 1.33 ± 0.19 |  |
| VIFNDNVTETYSVYLIH [SIR3] | 2.35 ± 0.12 | 2.42 ± 0.09 | 2.72 ± 0.072 | 2.28 ± 0.12 |
| LVFCKHITSVPISAVLR [GRR1] | 1.61 ± 0.053 | 1.72 ± 0.05 | 1.92 ± 0.088 | 1.71 ± 0.042 |
| EVKEQLGILKKKRFDEF [SMC4] |  | 2.68 ± 0.22 | 2.35 ± 0.23 | 3.03 ± 0.12 |
| SSFKKNLLKFITSNHKS [RPN3] | 1.46 ± 0.053 | 1.5 ± 0.049 | 1.3 ± 0.064 | 1.83 ± 0.092 |
| ENPTPEKGNAKMIDFAT [SIR3] | 3.1 ± 0.11 | 2.99 ± 0.092 | 3.32 ± 0.072 | 3.03 ± 0.068 |
| IRINDEPILGQITLTFI [YML103C/NUP188] | 2.21 ± 0.067 | 2.64 ± 0.05 | 1.57 ± 0.073 | 2.25 ± 0.048 |
| INIQSFKDVEHISFNFS [BRR2] | 2.67 ± 0.081 | 2.79 ± 0.13 | 2.67 ± 0.092 | 2.75 ± 0.061 |
| NAKKRVFKTHSYRGVDL [RPS15] | 2.93 ± 0.053 | 2.15 ± 0.033 | 3.16 ± 0.039 | 3.32 ± 0.047 |
| NDIDDLDMELAELDPSL [SEC65] | 3.34 ± 0.15 | 3.23 ± 0.089 | 3.08 ± 0.077 | 3.03 ± 0.073 |
| RLTKQAFDWVLSNIEAQ [RPO21] | 3.2 ± 0.12 | 2.93 ± 0.12 | 3.19 ± 0.091 | 2.8 ± 0.088 |
| EMIRGRSPEEIRRTFNI [SKP1] |  |  |  | 2.34 ± 0.28 |
| STLSNWSSEFAKWAPTL [SNF2] | 2.9 ± 0.054 | 2.45 ± 0.06 | 2.85 ± 0.055 | 2.26 ± 0.047 |
| VKFLVYQGVYSMGSILL [YML031W/NDC1] | 1.65 ± 0.091 | 1.43 ± 0.088 | 1.28 ± 0.099 | 1.7 ± 0.17 |
| NKQSVSNLSPDLKFKRH [DSN1] | 2.95 ± 0.11 | 2.61 ± 0.22 | 3.32 ± 0.089 | 2.34 ± 0.2 |
| HHELVPKHIRLSSDEKR [RPB5] | 2.9 ± 0.12 | 3.54 ± 0.12 | 2.82 ± 0.18 | 3.16 ± 0.073 |
| TENVAQARIILNHILEK [YGR119C/NUP57] | 2.58 ± 0.081 | 2.87 ± 0.08 | 3.14 ± 0.067 | 2.86 ± 0.061 |
| PIIATYGNRAEQFLETD [SRP68] | 2.09 ± 0.09 | 2.48 ± 0.063 | 2.26 ± 0.14 | 2.72 ± 0.084 |
| LISLIMTTWRKLYTKEL [YMR129W/POM152] | 2.35 ± 0.092 | 1.15 ± 0.093 | 1.42 ± 0.17 | 1.16 ± 0.044 |
| IRDSGDRIDLRYSKRAG [RPO21] | 3.43 ± 0.18 | 3.34 ± 0.23 | 3.25 ± 0.12 | 3.27 ± 0.19 |
| LFKTLFKKLTKDIFRYM [RPB2] | 1.94 ± 0.061 | 1.53 ± 0.059 | 1.33 ± 0.13 | 1.66 ± 0.055 |
